System: Escherichia coli TOP10
Assay: shrunken log2 fold change of peptide-encoding DNA abundance (4.5 h post-induction vs induction); higher = less antimicrobial activity (less host growth inhibition)
Settings: time post-induction: 4.5 h; library: site-saturation at positions 5, 18, 19, 20
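Further: peptides expressed intracellularly from a pBAD plasmid library in pooled LB shake-flask culture, induced with 0.3% L-arabinose, DNA abundance read by NGS, three biological replicates, DESeq2 with apeglm shrinkage.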

Row | Sequence | shrunken log2 fold change
1 | RRIRCRPPRLPRPRPRPAYFPRP | -0.361
2 | RRIRCRPPRLPRPRPRPCAEPRP | 0.0802
3 | RRIRCRPPRLPRPRPRPCANPRP | 0.00335
4 | RRIRCRPPRLPRPRPRPCDEPRP | -0.0731
5 | RRIRCRPPRLPRPRPRPCFPPRP | -0.321
6 | RRIRCRPPRLPRPRPRPCFSPRP | -0.344
7 | RRIRCRPPRLPRPRPRPCGSPRP | -0.0815
8 | RRIRCRPPRLPRPRPRPCIPPRP | -0.01
9 | RRIRCRPPRLPRPRPRPCLKPRP | -0.277
10 | RRIRCRPPRLPRPRPRPCMKPRP | -0.368
11 | RRIRCRPPRLPRPRPRPCPFPRP | -0.332
12 | RRIRCRPPRLPRPRPRPCQDPRP | -0.178
13 | RRIRCRPPRLPRPRPRPCQEPRP | -0.108
14 | RRIRCRPPRLPRPRPRPCQTPRP | -0.7
15 | RRIRCRPPRLPRPRPRPCQYPRP | 0.0234
16 | RRIRCRPPRLPRPRPRPCRIPRP | -0.271
17 | RRIRCRPPRLPRPRPRPCSRPRP | -0.0999
18 | RRIRCRPPRLPRPRPRPCTIPRP | 0.105
19 | RRIRCRPPRLPRPRPRPCTPPRP | -0.778
20 | RRIRCRPPRLPRPRPRPCVEPRP | -0.0788
21 | RRIRCRPPRLPRPRPRPCVFPRP | -0.0388
22 | RRIRCRPPRLPRPRPRPCWKPRP | -0.174
23 | RRIRCRPPRLPRPRPRPCWPPRP | -0.0967
24 | RRIRCRPPRLPRPRPRPCYNPRP | -0.837
25 | RRIRCRPPRLPRPRPRPDAAPRP | 1.03

Row | Sequence | shrunken log2 fold change
26 | RRIRCRPPRLPRPRPRPDDVPRP | -0.0387
27 | RRIRCRPPRLPRPRPRPDEEPRP | 0.123
28 | RRIRCRPPRLPRPRPRPDHDPRP | -0.265
29 | RRIRCRPPRLPRPRPRPDHFPRP | -0.175
30 | RRIRCRPPRLPRPRPRPDHMPRP | -0.0636
31 | RRIRCRPPRLPRPRPRPDHTPRP | -0.699
32 | RRIRCRPPRLPRPRPRPDISPRP | 0.0772
33 | RRIRCRPPRLPRPRPRPDKSPRP | -1.38
34 | RRIRCRPPRLPRPRPRPDLGPRP | 0.43
35 | RRIRCRPPRLPRPRPRPDNIPRP | -0.0703
36 | RRIRCRPPRLPRPRPRPDNPPRP | -0.137
37 | RRIRCRPPRLPRPRPRPDNYPRP | -0.921
38 | RRIRCRPPRLPRPRPRPDQLPRP | 0.101
39 | RRIRCRPPRLPRPRPRPDREPRP | 0.0186
40 | RRIRCRPPRLPRPRPRPDRRPRP | 0.0327
41 | RRIRCRPPRLPRPRPRPDSDPRP | -0.0612
42 | RRIRCRPPRLPRPRPRPDSIPRP | -0.0365
43 | RRIRCRPPRLPRPRPRPDSNPRP | -0.488
44 | RRIRCRPPRLPRPRPRPDSSPRP | -0.026
45 | RRIRCRPPRLPRPRPRPDSWPRP | -0.115
46 | RRIRCRPPRLPRPRPRPDTDPRP | -0.0352
47 | RRIRCRPPRLPRPRPRPDTHPRP | -0.716
48 | RRIRCRPPRLPRPRPRPDTSPRP | -0.365
49 | RRIRCRPPRLPRPRPRPDVWPRP | 0.198
50 | RRIRCRPPRLPRPRPRPDYLPRP | 0.0148

Row | Sequence | shrunken log2 fold change
51 | RRIRCRPPRLPRPRPRPDYRPRP | -0.0343
52 | RRIRCRPPRLPRPRPRPEACPRP | 0.0368
53 | RRIRCRPPRLPRPRPRPECGPRP | 0.436
54 | RRIRCRPPRLPRPRPRPEDQPRP | 1.21
55 | RRIRCRPPRLPRPRPRPEEVPRP | 0.362
56 | RRIRCRPPRLPRPRPRPEFCPRP | 0.0369
57 | RRIRCRPPRLPRPRPRPEFQPRP | 0.0126
58 | RRIRCRPPRLPRPRPRPEFYPRP | -0.356
59 | RRIRCRPPRLPRPRPRPEGNPRP | -0.0225
60 | RRIRCRPPRLPRPRPRPEGRPRP | 0.0128
61 | RRIRCRPPRLPRPRPRPEHAPRP | 0.999
62 | RRIRCRPPRLPRPRPRPEISPRP | -0.0399
63 | RRIRCRPPRLPRPRPRPEKIPRP | 0.117
64 | RRIRCRPPRLPRPRPRPELFPRP | 0.676
65 | RRIRCRPPRLPRPRPRPELIPRP | -0.0287
66 | RRIRCRPPRLPRPRPRPELVPRP | 0.423
67 | RRIRCRPPRLPRPRPRPEMDPRP | 0.0321
68 | RRIRCRPPRLPRPRPRPEPAPRP | 0.971
69 | RRIRCRPPRLPRPRPRPEQDPRP | -0.0796
70 | RRIRCRPPRLPRPRPRPEQFPRP | 0.0372
71 | RRIRCRPPRLPRPRPRPEQVPRP | -0.0491
72 | RRIRCRPPRLPRPRPRPESFPRP | 0.0159
73 | RRIRCRPPRLPRPRPRPESGPRP | 0.0145
74 | RRIRCRPPRLPRPRPRPETSPRP | 0.0533
75 | RRIRCRPPRLPRPRPRPEVNPRP | -0.00709

Row | Sequence | shrunken log2 fold change
76 | RRIRCRPPRLPRPRPRPEVWPRP | 0.725
77 | RRIRCRPPRLPRPRPRPEYDPRP | -0.173
78 | RRIRCRPPRLPRPRPRPEYLPRP | -0.258
79 | RRIRCRPPRLPRPRPRPFAGPRP | -0.175
80 | RRIRCRPPRLPRPRPRPFAPPRP | 0.229
81 | RRIRCRPPRLPRPRPRPFAVPRP | -0.169
82 | RRIRCRPPRLPRPRPRPFAYPRP | 0.00718
83 | RRIRCRPPRLPRPRPRPFCLPRP | -0.327
84 | RRIRCRPPRLPRPRPRPFDVPRP | -0.479
85 | RRIRCRPPRLPRPRPRPFEMPRP | -0.36
86 | RRIRCRPPRLPRPRPRPFEVPRP | -0.152
87 | RRIRCRPPRLPRPRPRPFFAPRP | 0.216
88 | RRIRCRPPRLPRPRPRPFFKPRP | -0.197
89 | RRIRCRPPRLPRPRPRPFFRPRP | -0.116
90 | RRIRCRPPRLPRPRPRPFHGPRP | -0.036
91 | RRIRCRPPRLPRPRPRPFIQPRP | -1.04
92 | RRIRCRPPRLPRPRPRPFIYPRP | -0.808
93 | RRIRCRPPRLPRPRPRPFMIPRP | -0.259
94 | RRIRCRPPRLPRPRPRPFMLPRP | -0.697
95 | RRIRCRPPRLPRPRPRPFNHPRP | -0.427
96 | RRIRCRPPRLPRPRPRPFNIPRP | -0.436
97 | RRIRCRPPRLPRPRPRPFNSPRP | 0.101
98 | RRIRCRPPRLPRPRPRPFQPPRP | -0.281
99 | RRIRCRPPRLPRPRPRPFRLPRP | -0.0979
100 | RRIRCRPPRLPRPRPRPFVDPRP | -0.307

Row | Sequence | shrunken log2 fold change
101 | RRIRCRPPRLPRPRPRPFVYPRP | -0.526
102 | RRIRCRPPRLPRPRPRPFWWPRP | 0.925
103 | RRIRCRPPRLPRPRPRPFYKPRP | 0.979
104 | RRIRCRPPRLPRPRPRPGCCPRP | 0.137
105 | RRIRCRPPRLPRPRPRPGDKPRP | -0.441
106 | RRIRCRPPRLPRPRPRPGEAPRP | 0.449
107 | RRIRCRPPRLPRPRPRPGEDPRP | -0.0369
108 | RRIRCRPPRLPRPRPRPGFDPRP | 0.104
109 | RRIRCRPPRLPRPRPRPGFKPRP | -0.226
110 | RRIRCRPPRLPRPRPRPGFYPRP | -0.449
111 | RRIRCRPPRLPRPRPRPGGSPRP | 0.0334
112 | RRIRCRPPRLPRPRPRPGGYPRP | 0.0874
113 | RRIRCRPPRLPRPRPRPGHMPRP | -0.0628
114 | RRIRCRPPRLPRPRPRPGIFPRP | 0.0252
115 | RRIRCRPPRLPRPRPRPGKPPRP | 0.506
116 | RRIRCRPPRLPRPRPRPGKWPRP | 0.107
117 | RRIRCRPPRLPRPRPRPGMQPRP | -0.255
118 | RRIRCRPPRLPRPRPRPGMYPRP | -0.848
119 | RRIRCRPPRLPRPRPRPGNFPRP | -0.0984
120 | RRIRCRPPRLPRPRPRPGPCPRP | 0.0993
121 | RRIRCRPPRLPRPRPRPGPSPRP | 0.17
122 | RRIRCRPPRLPRPRPRPGQGPRP | 0.43
123 | RRIRCRPPRLPRPRPRPGSIPRP | -0.311
124 | RRIRCRPPRLPRPRPRPGSPPRP | 0.169
125 | RRIRCRPPRLPRPRPRPGVWPRP | 0.537

Row | Sequence | shrunken log2 fold change
126 | RRIRCRPPRLPRPRPRPGYFPRP | -0.394
127 | RRIRCRPPRLPRPRPRPGYNPRP | -0.88
128 | RRIRCRPPRLPRPRPRPHAFPRP | -0.647
129 | RRIRCRPPRLPRPRPRPHAHPRP | -0.182
130 | RRIRCRPPRLPRPRPRPHAIPRP | -0.139
131 | RRIRCRPPRLPRPRPRPHCCPRP | 0.0538
132 | RRIRCRPPRLPRPRPRPHCSPRP | -0.769
133 | RRIRCRPPRLPRPRPRPHCYPRP | -0.135
134 | RRIRCRPPRLPRPRPRPHDPPRP | 0.286
135 | RRIRCRPPRLPRPRPRPHEIPRP | 0.322
136 | RRIRCRPPRLPRPRPRPHERPRP | -0.0193
137 | RRIRCRPPRLPRPRPRPHEYPRP | -0.253
138 | RRIRCRPPRLPRPRPRPHFVPRP | -0.23
139 | RRIRCRPPRLPRPRPRPHGPPRP | 0.0798
140 | RRIRCRPPRLPRPRPRPHHPPRP | -0.37
141 | RRIRCRPPRLPRPRPRPHKPPRP | 0.0762
142 | RRIRCRPPRLPRPRPRPHLTPRP | -0.229
143 | RRIRCRPPRLPRPRPRPHMHPRP | -0.527
144 | RRIRCRPPRLPRPRPRPHPVPRP | -0.207
145 | RRIRCRPPRLPRPRPRPHQSPRP | -0.0603
146 | RRIRCRPPRLPRPRPRPHRWPRP | 0.317
147 | RRIRCRPPRLPRPRPRPHSHPRP | -0.307
148 | RRIRCRPPRLPRPRPRPHSWPRP | -0.301
149 | RRIRCRPPRLPRPRPRPHTHPRP | -0.676
150 | RRIRCRPPRLPRPRPRPHVPPRP | -0.0309
